1 molecule from patent US20220112526A1, “BIOSYNTHESIS OF VANILLIN FROM ISOEUGENOL” (Conagen Inc., priority 2019, published 2022) can be followed below.

This data set is described as follows: Enzyme assay in vitro: formation of vanillin from isoeugenol by purified isoeugenol monooxygenase (HPLC). The conditions noted are these: 10 mM isoeugenol, pH 7.0, 30° C., 10 min. In kind it is biochemical. Here is the method: The two purified isoeugenol monooxygenases were assayed by measuring the formation of vanillin in an enzymatic measuring mixture with isoeugenol as the substrate. The reaction mixture contained 10 mM isoeugenol, 100 mM potassium phosphate buffer (pH 7.0), 10% (v/v) ethanol and an appropriate amount of enzyme, in a total volume of 1 ml. The reaction was started, by adding isoeugenol as ethanol solution, carried out at 30° C. for 10 min with reciprocal shaking (160 strokes min^−1) and stopped with 1 ml of methanol. After centrifugation at 21,500, the supernatant was analyzed by HPLC for the determination of isoeugenol, vanillin, and vanillyl alcohol. CfIEM enzyme treated in boiling water for 5 minutes was used as the negative control.
As expected, no vanillin was produced with the negative control (lower panel).

B1: CfIEM: isoeugenol monooxygenase from the fungus Colletotrichum fioriniae PJ7, 539 amino acids (SEQ ID NO: 2) (protein, listed as Colletotrichum fioriniae)
chain: MAPGRTDDEAAEVATSSKTHAISNYGLTTKWPEAYDLAGSNLPCRLEGEIGDLVVLGEIPKEIDGTFYRVMTDPFVPPHPNNVPLDGDGNISAFRIKDGRVDMKMRYVETERYKLERKANKALFGLYRNPFTHHPCVRAAVDSTANTNVVLWADHFLALKEGGLPYSVDPQTLETIKYDPFGQIKAKTFTAHPKIDPYTNELVVFGYEARGLASLDIVIYALDSNGVKHDEQWIKSPWCAPIHDCAITPNWIILALWPFEASVDRMKKGGHHWAWDYDLPATFIVAPRRSSTKLPPGWQPGESRVYSWKNCMLIHTGGAWESEDGQTLFMETTRVHDNGFPFFPTNEGVYPAPDPKSDYVRWTFDLSQPTNSKVPDPEIILDMPAEFPRLDERFLSKSYNYVWINVYIHEDQNGDGHTIVEGLNGLAMHNSKTKETKCFNAGAESFCQEPIFIPRSDDAPEGDGWVMTMVERRGANRNEIVVLDTKDFEKPIAVIQLPFHVKAQVHGNWVDQRRLKAWQKLARDAVPEPISGQGALEPL
Consider B1, for which the activity toward isoeugenol result is “high activity” and the “conversion of added isoeugenol to vanillin (HPLC)” value is “Almost all isoeugenol added to the reaction mixture was converted to vanillin”.
